Assay results as given in the supplement of paper PMC9112550, “Optimization of the antimicrobial peptide Bac7 by deep mutational scanning” (BMC Biology, 2022).

tested on: Escherichia coli TOP10; assay: shrunken log2 fold change of peptide-encoding DNA abundance (4.5 h post-induction vs induction); higher = less antimicrobial activity (less host growth inhibition); settings: time post-induction: 4.5 h; library: site-saturation at positions 5, 18, 19, 20
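Also: peptides expressed intracellularly from a pBAD plasmid library in pooled LB shake-flask culture, induced with 0.3% L-arabinose, DNA abundance read by NGS, three biological replicates, DESeq2 with apeglm shrinkage.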

Point of comparison: RRIRFRPPRLPRPRPRPWHEPRP, “shrunken log2 fold change” value -0.00448. Against it:
- RRIRNRPPRLPRPRPRPKSHPRP — lower, -0.253
- RRIRKRPPRLPRPRPRPRMWPRP — higher, 0.377
- RRIRGRPPRLPRPRPRPPIFPRP — higher, 0.35
- RRIRHRPPRLPRPRPRPYLVPRP — within 0.2 log units, -0.162
- RRIRMRPPRLPRPRPRPHFVPRP — within 0.2 log units, -0.025
- RRIRVRPPRLPRPRPRPCPTPRP — within 0.2 log units, -0.17
- RRIRNRPPRLPRPRPRPNNYPRP — lower, -1.01
- RRIRTRPPRLPRPRPRPIQLPRP — within 0.2 log units, -0.122
- RRIRGRPPRLPRPRPRPAHDPRP — higher, 0.643
- RRIRYRPPRLPRPRPRPSFIPRP — lower, -0.851
- RRIRVRPPRLPRPRPRPNFGPRP — within 0.2 log units, -0.098
- RRIRDRPPRLPRPRPRPEGTPRP — within 0.2 log units, -0.042
- RRIRQRPPRLPRPRPRPFNHPRP — within 0.2 log units, 0.0419
- RRIRERPPRLPRPRPRPTKKPRP — within 0.2 log units, 0.0853
- RRIRYRPPRLPRPRPRPINTPRP — lower, -0.274
- RRIRIRPPRLPRPRPRPQINPRP — lower, -0.776
- RRIRIRPPRLPRPRPRPRRIPRP — lower, -0.677
- RRIRKRPPRLPRPRPRPANMPRP — within 0.2 log units, -0.167
- RRIRWRPPRLPRPRPRPNSEPRP — within 0.2 log units, -0.071
- RRIRGRPPRLPRPRPRPDNDPRP — within 0.2 log units, 0.0238
- RRIRKRPPRLPRPRPRPKSYPRP — within 0.2 log units, -0.177
- RRIRSRPPRLPRPRPRPWNNPRP — lower, -0.627
- RRIRDRPPRLPRPRPRPLCMPRP — higher, 0.43
- RRIRCRPPRLPRPRPRPSTNPRP — lower, -0.911
- RRIRVRPPRLPRPRPRPELRPRP — within 0.2 log units, 0.123
- RRIRYRPPRLPRPRPRPNTRPRP — lower, -0.703
- RRIRDRPPRLPRPRPRPAPVPRP — higher, 0.49
- RRIRIRPPRLPRPRPRPFNCPRP — within 0.2 log units, -0.0819
- RRIRCRPPRLPRPRPRPVYKPRP — lower, -0.595
- RRIRYRPPRLPRPRPRPVNDPRP — lower, -0.24
- RRIRCRPPRLPRPRPRPARAPRP — higher, 0.471
- RRIRIRPPRLPRPRPRPLCKPRP — lower, -0.336
- RRIRHRPPRLPRPRPRPYIHPRP — lower, -0.322
- RRIRDRPPRLPRPRPRPPNKPRP — within 0.2 log units, 0.0523
- RRIRTRPPRLPRPRPRPFNMPRP — lower, -0.692
- RRIRERPPRLPRPRPRPKQPPRP — higher, 0.236
- RRIRQRPPRLPRPRPRPVYQPRP — within 0.2 log units, -0.022
- RRIRWRPPRLPRPRPRPGGHPRP — higher, 0.494
- RRIRKRPPRLPRPRPRPEWAPRP — higher, 0.604
- RRIRERPPRLPRPRPRPHHCPRP — within 0.2 log units, -0.0231
- RRIRIRPPRLPRPRPRPQAMPRP — within 0.2 log units, -0.0316
- RRIRPRPPRLPRPRPRPFGEPRP — within 0.2 log units, 0.0159
- RRIRIRPPRLPRPRPRPVWFPRP — within 0.2 log units, -0.125
- RRIRLRPPRLPRPRPRPMRCPRP — within 0.2 log units, 0.0565
- RRIRRRPPRLPRPRPRPMVVPRP — within 0.2 log units, 0.00307
- RRIRTRPPRLPRPRPRPVHFPRP — higher, 0.218
- RRIRIRPPRLPRPRPRPLSIPRP — lower, -0.493
- RRIRDRPPRLPRPRPRPHQHPRP — lower, -0.308
- RRIRARPPRLPRPRPRPDVTPRP — higher, 0.533
- RRIRERPPRLPRPRPRPWDHPRP — within 0.2 log units, -0.204
- RRIRFRPPRLPRPRPRPPWSPRP — higher, 0.204
- RRIRPRPPRLPRPRPRPTWTPRP — within 0.2 log units, 0.071
- RRIRLRPPRLPRPRPRPLAGPRP — within 0.2 log units, 0.0705
- RRIRSRPPRLPRPRPRPGKAPRP — within 0.2 log units, 0.188
- RRIRQRPPRLPRPRPRPQIEPRP — within 0.2 log units, -0.0133
- RRIRVRPPRLPRPRPRPTYMPRP — lower, -0.445
- RRIRRRPPRLPRPRPRPVYKPRP — within 0.2 log units, 0.0922
- RRIRWRPPRLPRPRPRPSGKPRP — within 0.2 log units, -0.0778
- RRIRYRPPRLPRPRPRPRRWPRP — higher, 0.309
- RRIRVRPPRLPRPRPRPPHRPRP — higher, 0.29
- RRIRSRPPRLPRPRPRPHNYPRP — lower, -0.372
- RRIRNRPPRLPRPRPRPKAVPRP — higher, 0.301
- RRIRDRPPRLPRPRPRPHYHPRP — lower, -0.806
- RRIRWRPPRLPRPRPRPKMGPRP — within 0.2 log units, 0.0381
- RRIRARPPRLPRPRPRPKWTPRP — within 0.2 log units, -0.00127
- RRIRARPPRLPRPRPRPHHLPRP — lower, -0.313
- RRIRDRPPRLPRPRPRPATSPRP — higher, 0.303
- RRIRWRPPRLPRPRPRPCVKPRP — within 0.2 log units, -0.0416
- RRIRERPPRLPRPRPRPCACPRP — lower, -0.78
- RRIRNRPPRLPRPRPRPRMMPRP — within 0.2 log units, 0.0809
- RRIRNRPPRLPRPRPRPFVIPRP — lower, -0.528
- RRIRGRPPRLPRPRPRPCCQPRP — within 0.2 log units, 0.181
- RRIRMRPPRLPRPRPRPKLGPRP — higher, 0.597
- RRIRLRPPRLPRPRPRPMTCPRP — lower, -0.252
- RRIRRRPPRLPRPRPRPQRPPRP — higher, 0.391
- RRIRPRPPRLPRPRPRPATYPRP — lower, -0.46
- RRIRDRPPRLPRPRPRPSLFPRP — higher, 0.205
- RRIRARPPRLPRPRPRPCLRPRP — within 0.2 log units, 0.0978
- RRIRHRPPRLPRPRPRPDWPPRP — within 0.2 log units, 0.114
- RRIRFRPPRLPRPRPRPFSTPRP — within 0.2 log units, -0.0736
- RRIRWRPPRLPRPRPRPPGFPRP — higher, 0.209
- RRIRARPPRLPRPRPRPETWPRP — higher, 0.369
- RRIRRRPPRLPRPRPRPKWHPRP — higher, 0.593
- RRIRCRPPRLPRPRPRPESRPRP — higher, 0.276
- RRIRPRPPRLPRPRPRPWDSPRP — lower, -0.456
- RRIRHRPPRLPRPRPRPHQHPRP — lower, -0.526
- RRIRTRPPRLPRPRPRPNVMPRP — within 0.2 log units, 0.0814
- RRIRVRPPRLPRPRPRPHLKPRP — lower, -0.284
- RRIRCRPPRLPRPRPRPAGGPRP — higher, 0.489
- RRIRGRPPRLPRPRPRPLHRPRP — within 0.2 log units, 0.187
- RRIRCRPPRLPRPRPRPVEDPRP — within 0.2 log units, -0.0221
- RRIRKRPPRLPRPRPRPIQLPRP — within 0.2 log units, -0.0418
- RRIRNRPPRLPRPRPRPAPKPRP — higher, 0.377
- RRIRWRPPRLPRPRPRPVPVPRP — higher, 0.271
- RRIRWRPPRLPRPRPRPVWTPRP — within 0.2 log units, 0.162
- RRIRTRPPRLPRPRPRPDGSPRP — within 0.2 log units, 0.0485
- RRIRMRPPRLPRPRPRPQMIPRP — within 0.2 log units, -0.0999
- RRIRQRPPRLPRPRPRPNCIPRP — within 0.2 log units, 0.133
- RRIRWRPPRLPRPRPRPINMPRP — lower, -0.328
- RRIRERPPRLPRPRPRPIDEPRP — within 0.2 log units, 0.0844
- RRIRQRPPRLPRPRPRPLARPRP — higher, 0.26
- RRIRHRPPRLPRPRPRPIVKPRP — within 0.2 log units, -0.19
- RRIRHRPPRLPRPRPRPCSHPRP — within 0.2 log units, -0.0787
- RRIRERPPRLPRPRPRPMCPPRP — within 0.2 log units, -0.0308
- RRIRARPPRLPRPRPRPQIWPRP — within 0.2 log units, 0.166
- RRIRVRPPRLPRPRPRPSCIPRP — lower, -0.423
- RRIRMRPPRLPRPRPRPPLPPRP — higher, 0.879
- RRIRERPPRLPRPRPRPRWIPRP — higher, 1.93
- RRIRRRPPRLPRPRPRPTGFPRP — higher, 0.728
- RRIRDRPPRLPRPRPRPLGTPRP — higher, 0.706
- RRIRCRPPRLPRPRPRPCWHPRP — within 0.2 log units, -0.169
- RRIRNRPPRLPRPRPRPAKSPRP — within 0.2 log units, 0.163
- RRIRGRPPRLPRPRPRPVCNPRP — higher, 0.636
- RRIRQRPPRLPRPRPRPSWHPRP — within 0.2 log units, -0.155
- RRIRLRPPRLPRPRPRPEHFPRP — within 0.2 log units, 0.0339
- RRIRLRPPRLPRPRPRPDVDPRP — within 0.2 log units, 0.0667
- RRIRHRPPRLPRPRPRPMNIPRP — lower, -0.214
- RRIRMRPPRLPRPRPRPQWHPRP — higher, 0.265
- RRIRHRPPRLPRPRPRPGPVPRP — higher, 0.26
- RRIRPRPPRLPRPRPRPNWNPRP — within 0.2 log units, -0.184
- RRIRRRPPRLPRPRPRPMEKPRP — within 0.2 log units, 0.096
- RRIRCRPPRLPRPRPRPYNPPRP — lower, -1.15
- RRIRYRPPRLPRPRPRPWCFPRP — lower, -0.369
- RRIRCRPPRLPRPRPRPYHVPRP — within 0.2 log units, -0.0591
- RRIRERPPRLPRPRPRPCGGPRP — within 0.2 log units, -0.0228
- RRIRARPPRLPRPRPRPYFSPRP — lower, -0.624
- RRIRYRPPRLPRPRPRPNTIPRP — lower, -1.05
- RRIRSRPPRLPRPRPRPITTPRP — lower, -0.578
- RRIRPRPPRLPRPRPRPVLAPRP — higher, 0.668
- RRIRLRPPRLPRPRPRPGMRPRP — higher, 0.787
- RRIRARPPRLPRPRPRPWGRPRP — higher, 0.198
- RRIRRRPPRLPRPRPRPGQAPRP — within 0.2 log units, 0.0103
- RRIRARPPRLPRPRPRPPWNPRP — higher, 0.427
- RRIRDRPPRLPRPRPRPQVVPRP — within 0.2 log units, 0.0572
- RRIRCRPPRLPRPRPRPHVYPRP — lower, -0.899
- RRIRFRPPRLPRPRPRPYHDPRP — lower, -0.722
- RRIRRRPPRLPRPRPRPINQPRP — within 0.2 log units, 0.0137
- RRIRLRPPRLPRPRPRPWMNPRP — within 0.2 log units, -0.0474
- RRIRMRPPRLPRPRPRPLGQPRP — higher, 0.738
- RRIRERPPRLPRPRPRPKHCPRP — within 0.2 log units, 0.0411
- RRIRARPPRLPRPRPRPRTNPRP — higher, 0.329
- RRIRERPPRLPRPRPRPGPDPRP — within 0.2 log units, -0.118
- RRIRARPPRLPRPRPRPDQNPRP — higher, 0.489
- RRIRHRPPRLPRPRPRPNTLPRP — within 0.2 log units, -0.0867
- RRIRGRPPRLPRPRPRPHQDPRP — within 0.2 log units, 0.165
- RRIRSRPPRLPRPRPRPYSHPRP — lower, -0.712
- RRIRERPPRLPRPRPRPAFTPRP — within 0.2 log units, -0.0832
- RRIRIRPPRLPRPRPRPSELPRP — within 0.2 log units, -0.186
- RRIRGRPPRLPRPRPRPDFMPRP — higher, 0.545
